Reference: the supplement of paper PMC9233669
Fewer inactive variants are shown than the library holds.

What was measured:
biotinyl-Ile-oxazolone = test: self-aminoacylation, catalytic enhancement (BIO) (fold over background); higher = more active; k-Seq, kA / k0A0; sequences stand for … in GGGAAUGGAUCCACAUCUACGAAUUC…UUCACUGCAGACUUGACGAAGCUG
In short: (§1)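 The uncatalyzed rate is the low-activity peak of a bimodal Gaussian fit, and catalytic enhancement is median kA divided by it. The kA values came from pseudo-first-order fits, with 1000 bootstraps, of per-sequence fraction reacted measured by streptavidin capture, triplicate qPCR and Illumina sequencing. Mutagenized RNA pools with a 21-nt variable region (0.43 μM) were reacted with each biotinyl-aminoacyl-oxazolone at 2–1250 μM in 50 μL HEPES/NaCl/KCl/MgCl2/CaCl2 buffer with 5% acetonitrile, pH 6.9–7.0, for 90 minutes at room temperature.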

biotinyl-Val-oxazolone = test: self-aminoacylation, catalytic enhancement (BVO) (fold over background); higher = more active; k-Seq, kA / k0A0; sequences stand for … in GGGAAUGGAUCCACAUCUACGAAUUC…UUCACUGCAGACUUGACGAAGCUG
In short: as §1

biotinyl-Met-oxazolone = test: self-aminoacylation, catalytic enhancement (BMO) (fold over background); higher = more active; k-Seq, kA / k0A0; sequences stand for … in GGGAAUGGAUCCACAUCUACGAAUUC…UUCACUGCAGACUUGACGAAGCUG
In short: as §1

biotinyl-Trp-oxazolone = test: self-aminoacylation, catalytic enhancement (BWO) (fold over background); higher = more active; k-Seq, kA / k0A0; sequences stand for … in GGGAAUGGAUCCACAUCUACGAAUUC…UUCACUGCAGACUUGACGAAGCUG
In short: as §1

biotinyl-Leu-oxazolone = test: self-aminoacylation, catalytic enhancement (BLO) (fold over background); higher = more active; k-Seq, kA / k0A0; sequences stand for … in GGGAAUGGAUCCACAUCUACGAAUUC…UUCACUGCAGACUUGACGAAGCUG
In short: as §1

biotinyl-Phe-oxazolone = test: self-aminoacylation, catalytic enhancement (BFO) (fold over background); higher = more active; k-Seq, kA / k0A0; sequences stand for … in GGGAAUGGAUCCACAUCUACGAAUUC…UUCACUGCAGACUUGACGAAGCUG
In short: as §1

Sequence	self-aminoacylation (biotinyl-Ile-oxazolone)	self-aminoacylation (biotinyl-Val-oxazolone)	self-aminoacylation (biotinyl-Met-oxazolone)	self-aminoacylation (biotinyl-Trp-oxazolone)	self-aminoacylation (biotinyl-Leu-oxazolone)	self-aminoacylation (biotinyl-Phe-oxazolone)
AAGUUUCCUAAUAGUCGUAAG [Fam3.1 aminoacylation ribozyme variant]	1.2	1.07	1.18	1.27	1.07	2.58
AAGUUUCGUAAUAGUCGCAAG [Fam3.1 aminoacylation ribozyme variant]	1.63	1.33	1.27	1.61	1.78	2.26
AAGUUUGAUAACAGUCGCAAG [Fam3.1 aminoacylation ribozyme variant]	0.929	0.798	0.877	0.569	0.548	0.983
AAGUUUGAUAAUAGCCGCAAG [Fam3.1 aminoacylation ribozyme variant]	1.29	1.14	1.37	1.19	1.05	1.32
AAGUUUGAUAAUAGUAGCAAG [Fam3.1 aminoacylation ribozyme variant]	0.724	0.691	0.756	0.667	0.535	0.835
AAGUUUGAUAAUGGUCGCAAG [Fam3.1 aminoacylation ribozyme variant]	0.891	0.644	0.785	0.581	0.895	1.47
AAGUUUGAUAUUAGUCGCAAG [Fam3.1 aminoacylation ribozyme variant]	1.45	1.4	1.24	1.31	1.54	1.72
AAGUUUGCAAAAAGUCGCAAG [Fam3.1 aminoacylation ribozyme variant]	0.902	0.733	1.07	0.831	0.938	1.72
AAGUUUGCAAAUACUCGCAAG [Fam3.1 aminoacylation ribozyme variant]	0.898	0.798	0.701	0.774	0.897	2.14
AAGUUUGCAAAUCGUCGCAAG [Fam3.1 aminoacylation ribozyme variant]	1.09	0.93	0.985	1.21	1.18	0.933
AAGUUUGCAAGUAGUCGCAAG [Fam3.1 aminoacylation ribozyme variant]	0.95	0.914	1.06	1.06	0.731	1.14
AAGUUUGCAUAUAGUCGCAAG [Fam3.1 aminoacylation ribozyme variant]	0.762	0.961	0.636	0.826	0.744	0.843
AAGUUUGCCAAUAGUCACAAG [Fam3.1 aminoacylation ribozyme variant]	1.55	1.23	1.56	1.04	1.07	1.1
AAGUUUGCCAAUAGUCCCAAG [Fam3.1 aminoacylation ribozyme variant]	1.21	1.04	1.1	1.27	0.831	0.931
AAGUUUGCGAAAAGUCGCAAG [Fam3.1 aminoacylation ribozyme variant]	1.46	1.43	1.8	1.3	1.8	2.82
AAGUUUGCGAAUAGUCACAAG [Fam3.1 aminoacylation ribozyme variant]	1.17	0.962	0.933	0.863	0.774	1.66
AAGUUUGCGAAUAGUCGCAAC [Fam3.1 aminoacylation ribozyme variant]	1.66	1.4	1.33	1.46	1.32	7.2
AAGUUUGCGAAUAGUCGCAGG [Fam3.1 aminoacylation ribozyme variant]	1.7	1.59	1.79	2.44	1.89	4.04
AAGUUUGCUAAAAGUCGCUAG [Fam3.1 aminoacylation ribozyme variant]	0.911	0.803	0.781	0.783	0.944	1.38
AAGUUUGCUAAAAGUCUCAAG [Fam3.1 aminoacylation ribozyme variant]	1.11	0.996	1.24	1.45	0.875	4.24
AAGUUUGCUAAACGUCGCAAG [Fam3.1 aminoacylation ribozyme variant]	0.739	0.542	0.608	0.603	0.537	0.887
AAGUUUGCUAACAAUCGCAAG [Fam3.1 aminoacylation ribozyme variant]	0.619	0.599	0.63	0.717	0.591	1.03
AAGUUUGCUAACAGUCGCAAA [Fam3.1 aminoacylation ribozyme variant]	1.43	0.995	1.06	1.58	1.23	2.28
AAGUUUGCUAACUGUCGCAAG [Fam3.1 aminoacylation ribozyme variant]	0.784	0.79	1.01	0.984	1	0.773
AAGUUUGCUAAGAGACGCAAG [Fam3.1 aminoacylation ribozyme variant]	0.661	0.76	0.544	0.74	0.967	1.28
AAGUUUGCUAAGAGUCGCAAG [Fam3.1 aminoacylation ribozyme variant]	0.748	0.741	0.755	1.39	0.661	3.23

Sequence	self-aminoacylation (biotinyl-Ile-oxazolone)	self-aminoacylation (biotinyl-Val-oxazolone)	self-aminoacylation (biotinyl-Met-oxazolone)	self-aminoacylation (biotinyl-Trp-oxazolone)	self-aminoacylation (biotinyl-Leu-oxazolone)	self-aminoacylation (biotinyl-Phe-oxazolone)
AAGUUUGCUAAGAGUCGGAAG [Fam3.1 aminoacylation ribozyme variant]	0.879	0.923	0.956	1.4	0.64	1.35
AAGUUUGCUAAGAGUUGCAAG [Fam3.1 aminoacylation ribozyme variant]	0.797	0.757	0.665	0.97	0.86	0.74
AAGUUUGCUAAGAUUCGCAAG [Fam3.1 aminoacylation ribozyme variant]	0.986	0.867	0.647	1.04	0.86	1.13
AAGUUUGCUAAUAAUCGAAAG [Fam3.1 aminoacylation ribozyme variant]	1.02	0.764	0.793	0.78	0.95	0.807
AAGUUUGCUAAUAAUCGCAUG [Fam3.1 aminoacylation ribozyme variant]	0.866	0.926	1.05	1.15	0.932	1.21
AAGUUUGCUAAUAAUCGGAAG [Fam3.1 aminoacylation ribozyme variant]	0.961	0.923	0.973	0.66	0.877	0.788
AAGUUUGCUAAUACACGCAAG [Fam3.1 aminoacylation ribozyme variant]	0.665	0.627	0.7	0.66	0.564	1.19
AAGUUUGCUAAUACUCGCUAG [Fam3.1 aminoacylation ribozyme variant]	0.63	0.507	0.532	0.445	0.594	0.624
AAGUUUGCUAAUACUGGCAAG [Fam3.1 aminoacylation ribozyme variant]	0.642	0.571	0.481	0.458	0.696	0.739
AAGUUUGCUAAUAGACGCGAG [Fam3.1 aminoacylation ribozyme variant]	0.793	0.64	0.912	0.812	0.619	0.443
AAGUUUGCUAAUAGACGGAAG [Fam3.1 aminoacylation ribozyme variant]	0.637	0.584	0.544	0.764	0.406	0.91
AAGUUUGCUAAUAGCCGCGAG [Fam3.1 aminoacylation ribozyme variant]	1.05	1.63	0.916	1.01	2.04	1.6
AAGUUUGCUAAUAGCCGUAAG [Fam3.1 aminoacylation ribozyme variant]	1.3	1.36	1.39	7.16	0.898	18.2
AAGUUUGCUAAUAGGCCCAAG [Fam3.1 aminoacylation ribozyme variant]	1.32	1.23	0.899	1.2	0.847	0.737
AAGUUUGCUAAUAGGCGCUAG [Fam3.1 aminoacylation ribozyme variant]	0.648	0.722	0.723	0.561	0.647	0.86
AAGUUUGCUAAUAGGGGCAAG [Fam3.1 aminoacylation ribozyme variant]	0.686	0.649	0.663	0.665	0.505	1.08
AAGUUUGCUAAUAGGUGCAAG [Fam3.1 aminoacylation ribozyme variant]	0.728	0.836	0.706	0.526	0.609	0.732
AAGUUUGCUAAUAGUAGCACG [Fam3.1 aminoacylation ribozyme variant]	0.814	0.764	0.733	0.766	0.619	1.39
AAGUUUGCUAAUAGUCACGAG [Fam3.1 aminoacylation ribozyme variant]	1.26	1.22	1.33	1.34	0.881	1.54
AAGUUUGCUAAUAGUCACUAG [Fam3.1 aminoacylation ribozyme variant]	1.08	0.939	0.981	1.13	0.836	1.1
AAGUUUGCUAAUAGUCCCGAG [Fam3.1 aminoacylation ribozyme variant]	1.22	1.27	1.28	2.65	1.31	1.54
AAGUUUGCUAAUAGUCGAAUG [Fam3.1 aminoacylation ribozyme variant]	1.09	0.903	1.17	1.17	0.88	1.48
AAGUUUGCUAAUAGUCGCAGC [Fam3.1 aminoacylation ribozyme variant]	1.17	0.913	0.956	1.99	0.821	1.11
AAGUUUGCUAAUAGUCGCCAG [Fam3.1 aminoacylation ribozyme variant]	1.02	0.997	1.03	1.39	0.962	1.41
AAGUUUGCUAAUAGUCGCCCG [Fam3.1 aminoacylation ribozyme variant]	3.76	2.69	2.98	3.76	3.87	9.34
